Measurements taken from the supplement of paper PMC9170038.

System: MS2 coat protein
Assay: apparent KD of MS2 coat protein; designed switch direction (-1 OFF switch, 1 ON switch): -1; higher = weaker reporter binding
Summary of the method: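 Designed RNA switches were transcribed on Illumina chips by stalled E. coli RNA polymerase and titrated with SNAP-549-labelled MS2 coat protein from 0.7 or 1.5 nM, doubling to 3 µM. Step length ran from 0.8–1.5 h at the lowest concentration to 10–20 min at the highest. The apparent KD is the median over clusters for each design, from curve-fitted normalised cluster fluorescence.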

[1] = Eterna round: R95, input ligand: microRNA oligo, concentration not stated
[2] = Eterna round: R95, input ligand: FMN 200 uM
[3] = Eterna round: R95, input ligand: none
[4] = input ligand: microRNA oligo, concentration not stated

Sequence	apparent KD of MS2 coat protein [1] [nM]	apparent KD of MS2 coat protein (input ligand: FMN 200 uM) [nM]	apparent KD of MS2 coat protein (input ligand: none) [nM]	apparent KD of MS2 coat protein [2] [nM]	apparent KD of MS2 coat protein [3] [nM]	apparent KD of MS2 coat protein [4] [nM]
UUUUAACAUGAGGAUCACCCAUGUGAGGAUAUCGAAAUUUAUAUUAAUAUUAAUUAAUCGAGAAGGCACAUUUU [JMF 28] (puzzle: Exclusion 1)	97.4					
UGCGGGCUUUUGAGACCUCACAUGAGGAUCACCCAUGUGCUUGUCUUGUGGGUGGGUAGGUCGUUGGCUGACUCACG [Sensor-V1 #98] (Eterna round: R97, puzzle: Sensor, turn-off variant 1)		68.2	68.9			
GGCGGGACAGGAUAUCUAGCACUAAACAUGAGGAUCACCCAUGUGGUGGUCGCAGGUGUCAGAGAAGGGUCAAAAG [Atenabe] (puzzle: Exclusion 5)	616			193	1480	
GUAAAGUGAGGAUAUGGUAAAUUAAUUAUUAAUUAAUUAAUCCAGAAGGCACAUGAGGAUCACCCAUGUUAAUG [Mat - Exclusion 4 - D89] (puzzle: Exclusion 4)	28.6			50.9	34.5	
UAUAUAUAGUAAGGAUAUGUAUCUAUUUUAUAAACAGAAGGUACUGACAUGAGGAUCACCCAUGUUUUAGUGUGGGCAUGUAGA [JMF's solution 8] (Eterna round: R96, puzzle: Exclusion NG 1)						71.6
UUAGCUCAAGUCAGGAUAUUAGAGGCUUGCCUAAAUAAGAAGGGACAUGAGGAUCACCCAUGUCUAUGCAUGUA [BmEX4 A.16] (Eterna round: R97, puzzle: Brourd's mod of Exclusion 4)		21.5	15.9			
UGAUCUAGGCGAGGAUAUACAUGAGGAUCACCCAUGUAAACGUGACAUGGAAACAUGUCACGUGUGUAGAAGGCGCCUAGAUCU [MOD2 ENG2 3.54 by JL] (Eterna round: R96, puzzle: Exclusion NG 2)		15.7	13.2			10.8
AGCUAGUCAGGAUAUUCUAAUAAUUACAUGAGGAUCACCCAUGUGCAUAGACAAGGGUGUGAAGAAGGGACUAGCG [Omei Ex5 A7] (Eterna round: R97, puzzle: Exclusion 5)		797	2530			
UUGUGCACGCUGCGGUCCUACAUGAGGAUCACCCAUGUGGUCUGGUGGCGUGGGUCACCGGACUUGGCUCGUCUUGC [salish99_S_TOV1_R5_059] (Eterna round: R97, puzzle: Sensor, turn-off variant 1)		22.5	22.8			
AGAGUGCUGCGAGGAUAUACAUGAGGAUCACCCAUGUAAAAGUGUGAGGCUUUGCCUCACACUAUGUAGAAGGCGCAGUACUCA [Mat - Exclusion NG 2 - Mod of JL - D10] (Eterna round: R96, puzzle: Exclusion NG 2)		17.6	13.4			9.4
GCCGGCUGAGGAUAUACAUGAGGAUCACCCAUGUGCUUCAGCCGGGAGACCGGCAUUGGUAGAAGGCAGCCGGC [Mod of lroppy 21 - Jieux - Exclusion 3] (Eterna round: R97, puzzle: Exclusion 3)		14.5	14.7			
AGUAACUAUCACGAAAGUGAUAGUUACACAAGUGAAUAAACAUGAGGAUCACCCAUGUCCUCAUUUGCUCGUCUUAU [Sensor 3 - 16] (puzzle: Sensor v3, turn-off variant 2)	365			418	499	
AAAAAGCUAGGAUAUACAUGAGGAUCACCCAUGUGAGGGCACCGCGGGCGCGGGACCGGUAGAAGGAGCAAAAA [Exc;s3-III] (puzzle: Exclusion 3)	24.9			23.5	29.1	
UUUUAACAUGAGGAUCACCCAUGUGAGGAUAUCGAAAUUUAUAUUAAUAUUAAUAUUUCGAGAAGGCACAUUUU [JMF 25] (puzzle: Exclusion 1)	125					
GGUCGACAUGAGGAUCACCCAUGUCAGGAUAUCGUCACUGGAGCUGCGGCUCCAGUGACGAGAAGGGAUAUAAU [E1/15-A3] (Eterna round: R97, puzzle: Exclusion 1)		45.3	38.8			
UAUAUGUAAGGAUAUCUCGUCAUGGAGGAAACUCCAUGACGAGAGAAGGUACAUGAGGAUCACCCAUGUCUAUU [Mod of Fisker 24 - Jieux - Exclusion 4] (Eterna round: R97, puzzle: Exclusion 4)		117	33.1			
UAGCAUUGCCUUUGGUAGUGCUUUACAUGAGGAUCACCCAUGUAGGAUAUGGUAGGCAAAGCUUACCAGAAGGACAUGAUAAUU [Mat - Exclusion NG 3 - Mod of JL - D11] (Eterna round: R96, puzzle: Exclusion NG 3)		198	76			51.6
GCUAGAGCAGGAUAUCGAGAUCCGCACAUGAGGAUCACCCAUGUACGGUCGAAAGACCGACGAGAAGGGCUCUAGC [Omei Ex5 E10] (Eterna round: R97, puzzle: Exclusion 5)		178	186			
GGCAUAAUGUAGGAUAUCGUAAUGGAAACAUUACGAGAAGGGCAAACAUGAGGAUCACCCAUGUUCCUUAAGCC [Mat - Exclusion 6 - Eli Mod - D70] (puzzle: Exclusion 6)	14.2			18.7	15.4	
CUCGUGCAGCUUUGCUGUACGAGUACAUGAGGAUCACCCAUGUAGGAUAUGGUACGCUUUGCGUGCCAGAAGGACGUGCGUUAG [JL EXNG3 1.41] (Eterna round: R96, puzzle: Exclusion NG 3)		78.6	28.9			25.9
GUGUACAGAGGAUAUACUUGAAUCUAGCGAAGCUAGGUUUGACAUGAGGAUCACCCAUGUAGAAGGCUGUACAC [Dot plot directed A v1] (puzzle: Exclusion 2)	13.7					
CUGUGAUGAGGAUAUACAUGAGGAUCACCCAUGUGUCCUCUGAUGGGUAGGGACCCUGGUAGAAGGCAUUGAGA [Eternabot (L1) Solution 52] (Eterna round: R97, puzzle: Exclusion 3)		19.2	15.5			
GUUCAGUCAGGAUAUCAAUCCGCCUGUGAUACGCAGGCGGCUGAGAAGGGACAUGAGGAUCACCCAUGUAAAGA [jl-ex4-4.21 ViennaUCT mod] (Eterna round: R97, puzzle: Exclusion 4)		51.1	37.1			
CUUUUGUGAGGAUAUCAGUAGUAAUACAAUAGUAUUACUACUGAGAAGGCACAUGAGGAUCACCCAUGUUUCUC [Ex4 344 Omei mod 3] (puzzle: Exclusion 4)	39.8					
AGCUAGUCAGGAUAUACAAACAUGUCAAAAGACGUGAAGGGACAUGAGGAUCACCCAUGUAGAAGGGACUAGCA [Web Mod 74% 2] (Eterna round: R96, puzzle: Exclusion 2)		304	49.2			43.1
CCCAUGCCCGAGGAUAUGCUGUACAAAAGUACUGCAGAAGGCGGGACAUGAGGAUCACCCAUGUGGCGAAAGCC [Omei Ex G7] (Eterna round: R97, puzzle: Exclusion 6)		11.5	124			
